Test results reported in US20170037110A1 (IMMATICS BIOTECHNOLOGIES, published 2017).

The binders below were run against T1, HLA-A*02:01 (human) (assay: UV peptide exchange ELISA).
T1 construct: monomers captured on streptavidin plates; also called MHC class I
From the text: Candidate peptides for T cell based therapies according to the present invention were further tested for their MHC binding capacity (affinity). The individual peptide-MHC complexes were produced by UV-ligand exchange, where a UV-sensitive peptide is cleaved upon UV-irradiation, and exchanged with the peptide of interest as analyzed. Only peptide candidates that can effectively bind and stabilize the peptide-receptive MHC molecules prevent dissociation of the MHC complexes. To determine the yield of the exchange reaction, an ELISA was performed based on the detection of the light chain (p2m) of stabilized MHC complexes.
96 well MAXISorp plates (NUNC) were coated over night with 2 μg/ml streptavidin in PBS at room temperature, washed 4× and blocked for 1 h at 37° C. in 2% BSA containing blocking buffer. […] Peptide-MHC monomers of the UV-exchange reaction were diluted 100 fold in blocking buffer. Samples were incubated for 1h at 37° C., washed four times, incubated with 2 μg/ml HRP conjugated anti-p2m for 1h at 37° C., washed again and detected with TMB solution that is stopped with […]. Absorption was measured at 450 nm.

ALGNTVPAV and YLISFQTHI fall in the same range of peptide exchange yield: 50 to 75% for the first, 50 to 75% for the second.

LLLNELPSV and SLQEQLHSV fall in the same range of peptide exchange yield: 50 to 75% for the first, 50 to 75% for the second.

TLLAFIMEL and TLIDAQWVL fall in the same range of peptide exchange yield: 50 to 75% for the first, 50 to 75% for the second.

First: GLDAATATV
Second: ILLEQAFYL
The peptide exchange yield of the first is lower: 20 to 50% for the first, 50 to 75% for the second.

First: ALLEAQDVELYL
Second: SIFSAFLSV
The peptide exchange yield of the first is lower: 20 to 50% for the first, 50 to 75% for the second.

LLIGTDVSL and YLNDLHEVLL cannot be ordered by peptide exchange yield: 50 to 75% for the first, ≥ 75% for the second.

Compared with RLPGPLGTV, ALLEASGTLLL is higher in peptide exchange yield: 20 to 50% for the first, ≥ 75% for the second.

First: RVLEVGALQAV
Second: FLPPEHTIVYI
The peptide exchange yield of the first is lower: 20 to 50% for the first, 50 to 75% for the second.

Compared with AMQEYIAVV, KITDTLIHL is higher in peptide exchange yield: 20 to 50% for the first, 50 to 75% for the second.

LLFGGTKTV and LLLDEEGTFSL fall in the same range of peptide exchange yield: 20 to 50% for the first, 20 to 50% for the second.

First: YVLEFLEEI
Second: ALSEEGLLVYL
The peptide exchange yield of the first is lower: 20 to 50% for the first, 50 to 75% for the second.

First: FLFPNQYVDV
Second: AIAYILQGV
The peptide exchange yield of the first is higher: 50 to 75% for the first, 20 to 50% for the second.

First: GLLEAKVSL
Second: ALMNTLLYL
The peptide exchange yield of the first is higher: 50 to 75% for the first, 20 to 50% for the second.

First: VLLTFKIFL
Second: SLFGGTEITI
The peptide exchange yield of the first is lower: 20 to 50% for the first, 50 to 75% for the second.

AAYGGLNEKSFV and LLWEVVSQL fall in the same range of peptide exchange yield: 50 to 75% for the first, 50 to 75% for the second.

Compared with VLFQGQASL, VLSETLYEL is lower in peptide exchange yield: 50 to 75% for the first, 20 to 50% for the second.

First: SLVEVNPAYSV
Second: MLYVVPIYL
The peptide exchange yield of the first is higher: 50 to 75% for the first, 20 to 50% for the second.

SMIDDLLGV and LLDGFLVNV fall in the same range of peptide exchange yield: 50 to 75% for the first, 50 to 75% for the second.

First: SLLFSLFEA
Second: ALQDFLLSV
The peptide exchange yield of the first is lower: 20 to 50% for the first, 50 to 75% for the second.

Compared with FLSPQQPPLLL, VLLPNDLLEKV is higher in peptide exchange yield: 20 to 50% for the first, 50 to 75% for the second.

ALYTGFSILV and ELAERVPAI fall in the same range of peptide exchange yield: 20 to 50% for the first, 20 to 50% for the second.

First: NLFQSVREV
Second: AAFAGKLLSV
The peptide exchange yield of the first is lower: 20 to 50% for the first, 50 to 75% for the second.

First: GLLPGDRLVSV
Second: ILVDWLVEV
The peptide exchange yield of the first is higher: 50 to 75% for the first, 10 to 20% for the second.

ILVDWLVQV and LLVSNLDFGV fall in the same range of peptide exchange yield: 50 to 75% for the first, 50 to 75% for the second.

First: YLVAKLVEV
Second: VLASYNLTV
The peptide exchange yield of the first is lower: 20 to 50% for the first, 50 to 75% for the second.

Compared with ALMEDTGRQML, SLLKVLPAL is higher in peptide exchange yield: 20 to 50% for the first, 50 to 75% for the second.

LLWGDLIWL and LVYPLELYPA fall in the same range of peptide exchange yield: 50 to 75% for the first, 50 to 75% for the second.
